Legend:
[1] = biological target: CD137 on cells (CD137 reporter cell line, Promega; expanded T cells) (UniProt Q07011 24-255, limits assumed); assay: cell-based or functional assay
[2] = biological target: T1, CD3 on T cells (UniProt P07766 23-207); assay: flow cytofluorimetry on expanded T cells, 250 nM; bar = MFI, marker = percent positive
T1 construct: whole, on cells; CD3 is a complex; also called T cell CD3
Procedure: (§1) The binding of the multispecific recombinant antigen binding molecules to expanded T cells (FIG. 6D) and to the colon tumor cell line DLD1 (FIG. 6A) was determined by flow cytofluorimetry. Binding was conducted with a saturating concentration (250 nM). The T cells were expanded in culture from immunocult ([…] Technologies) stimulated peripheral blood mononuclear cells that were maintained in culture for at least 30 days. Multispecific recombinant antigen binding molecules were produced in HEK293 cells and one-step purified by FPLC using a HiTrap Protein A column. The expression of various T cell markers or tumor antigens was determined using commercial antibodies specific for Trop2, CD137, MICA/MICB, Tim4, Tim1 (all purchased from Biolegend). […] Greater levels of binding to DLD1 are associated with binding to PS and in particular bivalent binding to PS (e.g., 17v7-18v9).

[3] = biological target: T2, TROP2 on DLD1 colon cancer cells (UniProt P09758 27-323, limits assumed); assay: flow cytofluorimetry on DLD1 colon tumor cells, 250 nM; bar = MFI, marker = percent positive
T2 construct: whole, on cells
T2 sequence (looked up): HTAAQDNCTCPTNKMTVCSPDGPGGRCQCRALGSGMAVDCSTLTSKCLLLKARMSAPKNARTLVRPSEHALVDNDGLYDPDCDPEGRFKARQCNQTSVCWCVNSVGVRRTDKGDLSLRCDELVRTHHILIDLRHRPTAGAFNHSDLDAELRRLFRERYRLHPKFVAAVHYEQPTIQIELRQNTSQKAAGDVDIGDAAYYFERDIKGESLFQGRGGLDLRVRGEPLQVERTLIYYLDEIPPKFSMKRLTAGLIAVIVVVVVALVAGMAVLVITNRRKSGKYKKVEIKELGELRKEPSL
Procedure: as §1

[4] = biological target: T2, TROP2 on DLD1 colon cancer cells; assay: cell-based or functional assay
[5] = biological target: T2, TROP2 on DLD1 colon cancer cells; assay: flow cytofluorimetry on DLD1 colon tumor cells, 250 nM; bar = MFI, marker = percent positive; the molecule also carries a b2GP1 D5 domain for phosphatidylserine
Procedure: as §1

CD137 on cells (CD137 reporter cell line, Promega; expanded T cells), sequence (Q07011 24-255 limits assumed): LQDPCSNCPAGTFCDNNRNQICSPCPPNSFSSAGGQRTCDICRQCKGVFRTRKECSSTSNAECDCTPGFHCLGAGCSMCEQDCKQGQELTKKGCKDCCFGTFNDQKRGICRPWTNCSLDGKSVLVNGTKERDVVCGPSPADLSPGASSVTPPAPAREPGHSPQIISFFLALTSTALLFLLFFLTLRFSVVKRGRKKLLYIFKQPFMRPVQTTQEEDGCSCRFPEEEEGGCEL
T1 sequence (P07766 23-207): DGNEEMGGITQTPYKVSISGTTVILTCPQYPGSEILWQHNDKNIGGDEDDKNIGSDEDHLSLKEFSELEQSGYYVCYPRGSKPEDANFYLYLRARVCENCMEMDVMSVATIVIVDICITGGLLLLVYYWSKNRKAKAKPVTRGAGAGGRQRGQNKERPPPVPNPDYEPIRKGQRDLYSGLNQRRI

B1: TetrAx 20v8-18v26 (Trop2 x CD137, two CD137L domains) (bispecific antibody)
light: DIQLTQSPSSLSASVGDRVSITCKASQDVSIAVAWYQQKPGKAPKLLIYSASYRTTGVPDRFSGSGSGTDFTLTISSLQPEDFAVYYCQQHYITPLTFGAGTKVEIKRTVAAPSVFIFPPSDEQLKSGTASVVCLLNNFYPREAKVQWKVDNALQSGNSQESVTEQDSKDSTYSLSSTLTLSKADYEKQKVYACEVTHQGLSSPVTKSFLRGECGGPAGGGGGTHTCPPCPAPEAAGGPSVFLFPPKPKDTLMISRTPEVTCVVVDVSHEDPEVKFNWYVDGVEVHNAKTKPREEQYNSTYRVVSVLTVLHQDWLNGKEYKCKVSNKALPAPIEKTISKAKGQPREPQVCTLPPSRDELTKNQVSLSCAVKGFYPSDIAVEWESNGQPENNYKTTPPVLDSDGSFFLVSKLTVDKSRWQQGNVFSCSVMHEALHNHYTQKSLSLSPGKGGGGGGMFAQLVAQNVLLIDGPLSWYSDPGLAGVSLTGGLSYKEDTKELVVAKAGVYYVFFQLELRRVVAGEGSGSVSLALHLQPLRSAAGAAALALTVDLPPASSEARNSAFGFQGRLLHLSAGQRLGVHLHTEARARHAWQLTQGATVLGLFRVTP
heavy: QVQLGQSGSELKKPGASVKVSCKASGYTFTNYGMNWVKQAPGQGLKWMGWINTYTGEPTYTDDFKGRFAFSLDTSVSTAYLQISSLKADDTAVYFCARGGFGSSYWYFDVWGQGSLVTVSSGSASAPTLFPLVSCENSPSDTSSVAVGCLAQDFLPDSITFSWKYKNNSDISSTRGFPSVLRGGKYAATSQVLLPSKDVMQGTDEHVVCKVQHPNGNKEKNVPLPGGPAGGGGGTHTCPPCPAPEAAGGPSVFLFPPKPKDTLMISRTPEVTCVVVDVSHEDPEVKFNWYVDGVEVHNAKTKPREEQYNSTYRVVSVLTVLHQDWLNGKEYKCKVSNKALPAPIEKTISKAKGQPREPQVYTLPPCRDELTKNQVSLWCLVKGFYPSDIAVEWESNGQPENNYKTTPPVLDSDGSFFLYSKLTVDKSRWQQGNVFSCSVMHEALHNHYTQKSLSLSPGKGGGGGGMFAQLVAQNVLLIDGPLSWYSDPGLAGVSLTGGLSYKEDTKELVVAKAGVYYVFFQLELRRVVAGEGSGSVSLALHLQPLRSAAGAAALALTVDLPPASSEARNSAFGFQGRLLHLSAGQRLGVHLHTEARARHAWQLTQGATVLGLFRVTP
notes: also called dual CD137L TetrAx
Question: For B1, which “CD137 signaling relative to the TetrAx with a single CD137L domain” value [1] is on record?
Answer: Its value is 3 fold.

Question: And the “T cell DLD1 cytotoxicity EC50” value [1]?
Answer: The value was 300 pM.

Question: Does B1 bind [2]?
Answer: Result: no binding (tested: 250 nM)

B2: TetrAx 20v8-18v22 (Trop2 x CD137, one CD137L domain) (bispecific antibody)
light: DIQLTQSPSSLSASVGDRVSITCKASQDVSIAVAWYQQKPGKAPKLLIYSASYRTTGVPDRFSGSGSGTDFTLTISSLQPEDFAVYYCQQHYITPLTFGAGTKVEIKRTVAAPSVFIFPPSDEQLKSGTASVVCLLNNFYPREAKVQWKVDNALQSGNSQESVTEQDSKDSTYSLSSTLTLSKADYEKQKVYACEVTHQGLSSPVTKSFLRGECGGPAGGGGGTHTCPPCPAPEAAGGPSVFLFPPKPKDTLMISRTPEVTCVVVDVSHEDPEVKFNWYVDGVEVHNAKTKPREEQYNSTYRVVSVLTVLHQDWLNGKEYKCKVSNKALPAPIEKTISKAKGQPREPQVCTLPPSRDELTKNQVSLSCAVKGFYPSDIAVEWESNGQPENNYKTTPPVLDSDGSFFLVSKLTVDKSRWQQGNVFSCSVMHEALHNHYTQKSLSLSPGKGGGGGGMFAQLVAQNVLLIDGPLSWYSDPGLAGVSLTGGLSYKEDTKELVVAKAGVYYVFFQLELRRVVAGEGSGSVSLALHLQPLRSAAGAAALALTVDLPPASSEARNSAFGFQGRLLHLSAGQRLGVHLHTEARARHAWQLTQGATVLGLFRVTP
heavy: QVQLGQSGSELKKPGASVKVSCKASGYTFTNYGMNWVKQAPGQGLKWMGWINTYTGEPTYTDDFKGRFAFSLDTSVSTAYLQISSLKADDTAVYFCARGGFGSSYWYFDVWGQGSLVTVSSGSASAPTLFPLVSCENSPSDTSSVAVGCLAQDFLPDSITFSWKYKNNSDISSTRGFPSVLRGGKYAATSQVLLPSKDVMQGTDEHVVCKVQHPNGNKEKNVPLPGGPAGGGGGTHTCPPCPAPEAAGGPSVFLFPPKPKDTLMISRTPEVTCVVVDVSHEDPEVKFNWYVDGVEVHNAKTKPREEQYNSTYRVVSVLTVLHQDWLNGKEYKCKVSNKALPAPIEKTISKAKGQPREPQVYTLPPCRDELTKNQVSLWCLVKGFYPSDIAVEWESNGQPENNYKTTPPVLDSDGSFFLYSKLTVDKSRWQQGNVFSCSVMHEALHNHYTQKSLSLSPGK
notes: CD137L domain is residues 90 to 242 (THD)
Question: Does B2 bind [3]?
Answer: Result: binds

Question: What about the “T cell DLD1 cytotoxicity” value [1] of the same binder?
Answer: The value was 40 fold.

Question: Does B2 bind [2]?
Answer: Result: no binding (tested: 250 nM)

B3: TetrAx 17v17-18v23 (PS x Trop2 x CD3) (bispecific antibody)
light: DIQLTQSPSSLSASVGDRVSITCKASQDVSIAVAWYQQKPGKAPKLLIYSASYRTTGVPDRFSGSGSGTDFTLTISSLQPEDFAVYYCQQHYITPLTFGAGTKVEIKRTVAAPSVFIFPPSDEQLKSGTASVVCLLNNFYPREAKVQWKVDNALQSGNSQESVTEQDSKDSTYSLSSTLTLSKADYEKQKVYACEVTHQGLSSPVTKSFLRGECGGPAGGGGGTHTCPPCPAPEAAGGPSVFLFPPKPKDTLMISRTPEVTCVVVDVSHEDPEVKFNWYVDGVEVHNAKTKPREEQYNSTYRVVSVLTVLHQDWLNGKEYKCKVSNKALPAPIEKTISKAKGQPREPQVCTLPPSRDELTKNQVSLSCAVKGFYPSDIAVEWESNGQPENNYKTTPPVLDSDGSFFLVSKLTVDKSRWQQGNVFSCSVMHEALHNHYTQKSLSLSPGKGGGGGGASCKVPVKKATVVYQGERVKIQEKFKNGMLHGDKVSFFCKNKEKKCSYTEDAQCIDGTIEVPKCFKEHSSLAFWKTDASDVKPC
heavy: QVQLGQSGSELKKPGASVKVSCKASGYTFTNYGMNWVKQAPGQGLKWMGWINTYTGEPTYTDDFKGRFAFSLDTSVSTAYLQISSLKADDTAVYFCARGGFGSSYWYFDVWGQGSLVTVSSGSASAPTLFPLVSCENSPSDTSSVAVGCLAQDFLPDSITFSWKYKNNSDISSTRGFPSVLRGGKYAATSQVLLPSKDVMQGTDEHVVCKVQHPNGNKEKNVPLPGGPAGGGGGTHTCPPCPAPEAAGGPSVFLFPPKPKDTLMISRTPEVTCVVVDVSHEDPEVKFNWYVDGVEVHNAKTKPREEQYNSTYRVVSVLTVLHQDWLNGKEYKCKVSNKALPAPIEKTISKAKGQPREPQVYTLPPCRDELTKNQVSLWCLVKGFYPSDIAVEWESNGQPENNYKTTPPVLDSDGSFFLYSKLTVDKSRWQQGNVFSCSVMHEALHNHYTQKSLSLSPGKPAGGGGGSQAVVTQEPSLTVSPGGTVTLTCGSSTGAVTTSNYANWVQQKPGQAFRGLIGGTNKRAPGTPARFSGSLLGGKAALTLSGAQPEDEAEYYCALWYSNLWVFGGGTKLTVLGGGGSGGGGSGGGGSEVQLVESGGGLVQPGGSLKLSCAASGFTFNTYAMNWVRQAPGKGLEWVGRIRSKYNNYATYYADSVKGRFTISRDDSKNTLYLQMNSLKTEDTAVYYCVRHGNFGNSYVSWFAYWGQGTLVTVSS
Question: B3 was tested. Which “DLD1 cytotoxicity EC50 (18 h, T cells)” value [4] did it give?
Answer: The value was 0.5 pM.

Question: And the “DLD1 cytotoxicity EC50 in a 3D tumor model (spheroids, T cells 2:1)” value [4]?
Answer: The value was 21 pM.

B4: 17v17-18v22 (bispecific antibody)
light chain 17v17: DIQLTQSPSSLSASVGDRVSITCKASQDVSIAVAWYQQKPGKAPKLLIYSASYRTTGVPDRFSGSGSGTDFTLTISSLQPEDFAVYYCQQHYITPLTFGAGTKVEIKRTVAAPSVFIFPPSDEQLKSGTASVVCLLNNFYPREAKVQWKVDNALQSGNSQESVTEQDSKDSTYSLSSTLTLSKADYEKQKVYACEVTHQGLSSPVTKSFLRGECGGPAGGGGGTHTCPPCPAPEAAGGPSVFLFPPKPKDTLMISRTPEVTCVVVDVSHEDPEVKFNWYVDGVEVHNAKTKPREEQYNSTYRVVSVLTVLHQDWLNGKEYKCKVSNKALPAPIEKTISKAKGQPREPQVCTLPPSRDELTKNQVSLSCAVKGFYPSDIAVEWESNGQPENNYKTTPPVLDSDGSFFLVSKLTVDKSRWQQGNVFSCSVMHEALHNHYTQKSLSLSPGKGGGGGGASCKVPVKKATVVYQGERVKIQEKFKNGMLHGDKVSFFCKNKEKKCSYTEDAQCIDGTIEVPKCFKEHSSLAFWKTDASDVKPC
heavy chain 18v22: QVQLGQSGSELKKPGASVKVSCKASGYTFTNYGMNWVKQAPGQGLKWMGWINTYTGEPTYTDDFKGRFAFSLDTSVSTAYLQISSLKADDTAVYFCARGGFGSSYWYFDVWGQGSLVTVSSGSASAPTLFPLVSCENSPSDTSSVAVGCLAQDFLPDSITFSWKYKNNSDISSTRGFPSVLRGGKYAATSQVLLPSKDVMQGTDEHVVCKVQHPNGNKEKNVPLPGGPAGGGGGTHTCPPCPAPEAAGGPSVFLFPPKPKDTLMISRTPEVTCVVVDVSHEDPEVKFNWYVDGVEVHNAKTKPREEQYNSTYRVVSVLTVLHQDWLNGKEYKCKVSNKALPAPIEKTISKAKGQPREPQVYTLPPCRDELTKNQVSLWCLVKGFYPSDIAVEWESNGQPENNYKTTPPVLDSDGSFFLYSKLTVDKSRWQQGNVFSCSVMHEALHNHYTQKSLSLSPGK
notes: also called TROP2 - PS (control)
Question: Does B4 bind [5]?
Answer: Result: binds

B5: TetrAx 17v16-18v23 (Trop2 x CD3) (bispecific antibody)
light: DIQLTQSPSSLSASVGDRVSITCKASQDVSIAVAWYQQKPGKAPKLLIYSASYRTTGVPDRFSGSGSGTDFTLTISSLQPEDFAVYYCQQHYITPLTFGAGTKVEIKRTVAAPSVFIFPPSDEQLKSGTASVVCLLNNFYPREAKVQWKVDNALQSGNSQESVTEQDSKDSTYSLSSTLTLSKADYEKQKVYACEVTHQGLSSPVTKSFLRGECGGPAGGGGGTHTCPPCPAPEAAGGPSVFLFPPKPKDTLMISRTPEVTCVVVDVSHEDPEVKFNWYVDGVEVHNAKTKPREEQYNSTYRVVSVLTVLHQDWLNGKEYKCKVSNKALPAPIEKTISKAKGQPREPQVCTLPPSRDELTKNQVSLSCAVKGFYPSDIAVEWESNGQPENNYKTTPPVLDSDGSFFLVSKLTVDKSRWQQGNVFSCSVMHEALHNHYTQKSLSLSPGK
heavy: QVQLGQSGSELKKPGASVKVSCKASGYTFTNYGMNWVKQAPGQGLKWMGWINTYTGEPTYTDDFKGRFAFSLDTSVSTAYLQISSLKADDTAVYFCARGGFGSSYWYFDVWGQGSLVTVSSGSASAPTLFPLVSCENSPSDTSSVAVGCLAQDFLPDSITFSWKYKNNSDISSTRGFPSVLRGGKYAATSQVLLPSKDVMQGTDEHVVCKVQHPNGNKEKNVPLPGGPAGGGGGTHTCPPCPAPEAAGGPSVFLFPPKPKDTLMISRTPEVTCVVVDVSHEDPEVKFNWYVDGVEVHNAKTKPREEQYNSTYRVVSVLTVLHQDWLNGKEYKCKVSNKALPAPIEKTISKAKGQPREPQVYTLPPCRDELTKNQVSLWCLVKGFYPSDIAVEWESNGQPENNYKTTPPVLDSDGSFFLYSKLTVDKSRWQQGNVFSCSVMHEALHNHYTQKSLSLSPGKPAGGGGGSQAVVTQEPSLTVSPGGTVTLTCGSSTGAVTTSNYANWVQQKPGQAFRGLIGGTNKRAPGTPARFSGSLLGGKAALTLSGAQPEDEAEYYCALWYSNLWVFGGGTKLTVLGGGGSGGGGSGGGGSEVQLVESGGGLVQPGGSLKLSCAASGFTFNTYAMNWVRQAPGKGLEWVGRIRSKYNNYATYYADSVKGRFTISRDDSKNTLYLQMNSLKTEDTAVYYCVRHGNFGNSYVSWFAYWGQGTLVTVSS
Question: With B5 as the binder, how does the “DLD1 cytotoxicity EC50 (18 h, T cells)” value [4] read?
Answer: Its value is 8 pM.

B6: TetrAx 17v9-18 (Trop2 x CD3) (bispecific antibody)
light: QAVVTQEPSLTVSPGGTVTLTCGSSTGAVTTSNYANWVQEKPGQAFRGLIGGTNKRAPGTPARFSGSLLGGKAALTLSGAQPEDEAEYYCALWYSNLWVFGCGTKLTVLRTVAAPSVFIFPPSDEQLKSGTASVVCLLNNFYPREAKVQWKVDNALQSGNSQESVTEQDSKDSTYSLSSTLTLSKADYEKHKVYACEVTHQGLSSPVTKSFNRGECGGPAGGGGGTHTCPPCPAPEAAGGPSVFLFPPKPKDTLMISRTPEVTCVVVDVSHEDPEVKFNWYVDGVEVHNAKTKPREEQYNSTYRVVSVLTVLHQDWLNGKEYKCKVSNKALPAPIEKTISKAKGQPREPQVCTLPPSRDELTKNQVSLSCAVKGFYPSDIAVEWESNGQPENNYKTTPPVLDSDGSFFLVSKLTVDKSRWQQGNVFSCSVMHEALHNHYTQKSLSLSPGKGGGGGGQVQLGQSGSELKKPGASVKVSCKASGYTFTSYAMNWVRQAPGQGLKWMGWINTYTGETPYTDDFKGRFAFSLDTSVSTAYLQISSLKADDTAVYFCARGGFGSSYWYFDVWGQGTLVTVSSGGGGSGGGGSGGGGSDIQLTQSPSSLSASVGDRVSITCKASQDVSIAVAWYQQKPGKAPKLLIYSASYRYTGVPDRFSGSGSGTDFTLTISSLQPEDFAVYYCQQHYITPLTFGAGTKVEIK
heavy: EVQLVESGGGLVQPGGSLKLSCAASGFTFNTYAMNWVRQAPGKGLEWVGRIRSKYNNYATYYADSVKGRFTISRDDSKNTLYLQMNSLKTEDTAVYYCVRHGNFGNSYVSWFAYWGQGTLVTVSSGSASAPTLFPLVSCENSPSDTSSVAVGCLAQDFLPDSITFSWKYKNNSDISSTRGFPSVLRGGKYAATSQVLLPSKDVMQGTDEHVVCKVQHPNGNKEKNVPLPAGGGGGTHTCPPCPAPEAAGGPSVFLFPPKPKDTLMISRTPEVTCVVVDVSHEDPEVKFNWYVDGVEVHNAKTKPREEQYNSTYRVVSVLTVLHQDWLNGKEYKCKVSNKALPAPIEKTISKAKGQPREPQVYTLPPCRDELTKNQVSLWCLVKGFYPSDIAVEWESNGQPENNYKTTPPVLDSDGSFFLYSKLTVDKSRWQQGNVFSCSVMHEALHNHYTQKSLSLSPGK
Question: For B6, which “DLD1 cytotoxicity EC50 (18 h, T cells)” value [4] is on record?
Answer: Its value is about 3 pM.

— patent US20240400705A1 (SYNERGY IMT, published 2024)
